# Test results taken from patent US20100040633A1 (published 2010).
# T1: TGF-beta 3 (human, UniProt P10600 301-412)
# T1 construct: Bought protein; also called TGF-β3
# T1 sequence (looked up): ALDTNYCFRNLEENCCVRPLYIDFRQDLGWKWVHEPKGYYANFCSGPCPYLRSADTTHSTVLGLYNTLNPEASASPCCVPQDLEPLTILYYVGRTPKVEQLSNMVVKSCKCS
# Target: T1, TGF-beta 3
# Assay: ratio of Biacore Kd for TGF-β3 to Kd for TGF-β1
# Method: Affinities of binding composition mAbs for TGF-β3 are determined using BIAcore methods. All measurements are performed at room temperature. Samples are dissolved in HBS-EP buffer (150 mM sodium chloride, 3 mM EDTA, 0.01% (w/v) surfactant P-20, and 10 mM HEPES, pH 7.4). Recombinant Protein A is immobilized on four flow cells of a CM4 sensor chip at a level of 400-450 response units (RUs) using an amine coupling kit. Binding is evaluated over multiple analytical cycles. Each cycle is performed at a flow rate of 100 μL/minute consisting of the following steps: injection of 15 μL of an antibody binding composition at 0.5 μg/mL, injection of 250 μL of TGF-β3 (starting at 5 nM and using two-fold serial dilutions to […] for each cycle, with two injections for each concentration) followed by a short (5 minutes) delay for dissociation, and regeneration using two injections of 50 μL of 10 mM glycine hydrochloride, pH 1.5.
# Affinities are determined based upon the equilibrium signal as reached at varying TGF-β3 concentrations by measuring the average signal during the last 10 seconds of the TGF-β3 injections, and then fitting the resulting signals at all of the TGF-β3 concentrations to a simple binding equilibrium model in SCRUBBER (Center for Biomolecular Interaction Analysis, Univ. of Utah). Model data determined for tested human mab composition of the invention of Kd and specificity calculated by dividing the Kd for TGF-β3 binding by the Kd for TGF-β1 binding (herein) is shown below in Table 5.
row,"Specificity (Kd, β3/Kd, β1)",Binder
1,9800,"mAb 21D1 (antibody, human IgG4 S228P, kappa, V domains shown, Full-length IgG4 antibody; also called LA307-21D1) VH: QVQLVQSGAEVKKPGASVKVSCKASGYTFTDYNIHWVRQAPGQGLEWMGYIYPYDGETGYNQKFKSRVTMTTDTSTSTAYMELRSLRSDDTAVYYCARGYRWFAYWGQGTLVTVSS VL: DIQMTQSPSSLSASVGDRVTITCRASSSVPYMHWFQQKPGKAPKSLIYATSNPAYGVPSRFSGSGSGTDFTLTISSLQPEDFATYYCQQWDLNPPAFGQGTKLEIKR"
2,2320,"mAb DM7 (antibody, V domains shown) VH: QVQLVQSGAEVKKPGASVKVSCKASGYDFTDYNMHWVRQAPGQGLEWMGYIYPYDGETGYNQKFKSRVTMTTDTSTSTAYMELRSLRSDDTAVYYCARGYRWLYYWGQGTLVTVSS VL: DIQMTQSPSSLSASVGDRVTITCRASSSVSYMHWYQQKPGKAPKPLIYATSNLAKGVPSRFSGSGSGTDFTLTISSLQPEDFATYYCQQWDLNPPAFGQGTKLEIK"
3,621,"mAb DM4 (antibody, human IgG4 S228P, kappa, V domains shown, Full-length IgG4 antibody; also called LA307-DM4) VH: QVQLVQSGAEVKKPGASVKVSCKASGYDFTDYNIHWVRQAPGQGLEWMGYIYPYDGETGYNQKFKSRVTMTTDTSTSTAYMELRSLRSDDTAVYYCARGYRWLAYWGQGTLVTVSS VL: DIQMTQSPSSLSASVGDRVTITCRASSSVSYMHWYQQKPGKAPKPLIYATSNLAYGVPSRFSGSGSGTDFTLTISSLQPEDFATYYCQQWDLNPPAFGQGTKLEIKR"
4,1050,"mAb 23A3 (antibody, V domains shown) VH: QVQLVQSGAEVKKPGASVKVSCKASGYDFTDYNMVWVRQAPGQGLEWMGSIYPYDGETGYNQKFKSRVTMTTDTSTSTAYMELRSLRSDDTAVYYCARGYRAFEYWGQGTLVTVSS VL: DIQMTQSPSSLSASVGDRVTITCRASSSVPYMHWYQQKPGKAPKLLIYATSNPAYGVPSRFSGSGSGTDFTLTISSLQPEDFATYYCQQWDLNPPAFGQGTKLEIK"
